Laboratory results taken from paper PMC6159526.

T1: HicB109-150 (C-terminal DNA-binding domain) (Streptococcus pneumoniae, UniProt A0A0H2URC7 109-150)
T1 chain: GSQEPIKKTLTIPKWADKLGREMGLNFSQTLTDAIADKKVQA

B1: hicBA promoter DNA, 28 bp (dsDNA)
DNA 1: TAATAGAATAATAAGTATCACTCCTTTA
DNA 2: TAAAGGAGTGATACTTATTATTCTATTA
B2: Pal-I (dsDNA)
DNA 1: TCTGTAACGTTCGATACAGA
DNA 2: TCTGTATCGAACGTTACAGA

Legend:
[1] = target: T2, HicB antitoxin;HicA toxin (Streptococcus pneumoniae;Streptococcus …, UniProt A0A0H2URC7;A0A0H2URA5 1-150;1-68, |); test: ITC
[2] = target: T1, HicB109-150 (C-terminal DNA-binding …); test: NMR titration
HicB antitoxin [3] = target: T3, HicB antitoxin (Streptococcus pneumoniae, UniProt A0A0H2URC7 1-150); test: ITC
[4] = target: T2, HicB antitoxin;HicA toxin; test: EMSA
HicB antitoxin [5] = target: T3, HicB antitoxin; test: EMSA

Binder	Kd [1]	Kd [2]	Kd (HicB antitoxin [3])	binding result [4]	binding result (HicB antitoxin [5])
B1	4.2 ± 0.4 µM	4.5 ± 1.1 µM	8.8 ± 1.1 µM		
B2				no binding	no binding
